Test results as given in the supplement of paper PMC10567573.

Assay: protein stability index of a GFP-peptide fusion (GPS, HEK-293T) (PSI 1-6); higher = more stable
Settings: c terminus: native
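Further: lentivirally expressed fusion library, cells FACS-sorted into six equal-sized GFP/DsRed ratio bins, PSI computed from sequencing read fractions per bin weighted by bin number.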

## EQRNSRWNTVLRAVKAKTHHLEPN [TRPA1 addN]
parent: NP_015628.1
  protein stability index: 4.57

## DGWIRVSSDNVADLHEKYSGSTPN [PSMB5 addN]
parent: NP_002788.1
  protein stability index: 4.04

## CQPISFSGFGAEDDDLGGLGLGPV [POLD2 addV]
parent: NP_006221.1
  protein stability index: 3

## CQPISFSGFGAEDDDLGGLGLGPN [POLD2 addN]
parent: NP_006221.1
  protein stability index: 1.99

## EQRNSRWNTVLRAVKAKTHHLEPV [TRPA1 addV]
parent: NP_015628.1
  protein stability index: 4.23

## HSLRAVSTDPPHHDHHDEFCLMPV [BEX2 addV]
parent: NP_116010.1
  protein stability index: 3.68

## LPALFTDLYSQEITAEEAREALPV [SNF8 addV]
parent: NP_009172.2
  protein stability index: 3.9

## DGWIRVSSDNVADLHEKYSGSTPV [PSMB5 addV]
parent: NP_002788.1
  protein stability index: 4.27

## LPALFTDLYSQEITAEEAREALPN [SNF8 addN]
parent: NP_009172.2
  protein stability index: 4.75

## HSLRAVSTDPPHHDHHDEFCLMPN [BEX2 addN]
parent: NP_116010.1
  protein stability index: 4.18
